Laboratory results taken from patent publication US20220363761A1 (MERUS N V, published 2022).

T1: human LAG-3 (expressed on 293FF cells) (human, UniProt P18627 23-525)
T1 construct: whole, on cells; also called CD223
T1 sequence (looked up): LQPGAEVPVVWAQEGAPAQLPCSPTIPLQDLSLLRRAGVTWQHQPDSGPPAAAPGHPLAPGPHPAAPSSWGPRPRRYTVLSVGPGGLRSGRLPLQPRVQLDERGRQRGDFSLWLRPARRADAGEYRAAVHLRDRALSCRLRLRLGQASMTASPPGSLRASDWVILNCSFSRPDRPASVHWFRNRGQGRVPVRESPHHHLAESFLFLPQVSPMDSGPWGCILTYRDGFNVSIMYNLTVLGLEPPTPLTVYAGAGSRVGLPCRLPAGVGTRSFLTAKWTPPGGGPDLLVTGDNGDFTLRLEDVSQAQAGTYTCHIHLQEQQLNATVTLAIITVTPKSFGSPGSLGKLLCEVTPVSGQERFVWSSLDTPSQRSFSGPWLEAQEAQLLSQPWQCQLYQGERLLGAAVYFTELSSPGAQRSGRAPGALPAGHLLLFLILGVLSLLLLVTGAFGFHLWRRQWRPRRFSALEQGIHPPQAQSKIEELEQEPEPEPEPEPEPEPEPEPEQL

B1: PD-1xLAG-3 bispecific antibody SEQ ID NO: 1 × SEQ ID NO: 11 (bispecific antibody)
heavy (part 1 of 2) 1: not shown
heavy (part 2 of 2) 1: not shown
heavy (part 1 of 2) 2: QVQLQESGPGLVRPSETLSLTCTVSGGSISSYSWSWIRQPPGKGLEWIGYIDYSGSTNYNPSLKSRVTISVDTSKTQFSLKLSSVSAADTAVYYCAKDLLYKWNYVEGFDIWGQGTTVTVSSASTKGPSVFPLAPSSKSTSGGTAALGCLVKDYFPEPVTVSWNSGALTSGVHTFPAVLQSSGLYSLSSVVTVPSSSLGTQTYICNVNHKPSNTKVDKRV
heavy (part 2 of 2) 2: not shown
light: not shown
notes: IgG1; common light chain; also called PB1; not shown: hinge (IgG1)
B2: PD-1xLAG-3 bispecific antibody SEQ ID NO: 5 × SEQ ID NO: 11 (bispecific antibody)
heavy (part 1 of 2) 1: not shown
heavy (part 2 of 2) 1: not shown
heavy (part 1 of 2) 2: B1 heavy (part 1 of 2) 2
heavy (part 2 of 2) 2: not shown
light: not shown
notes: IgG1; common light chain; also called PB13; not shown: hinge (IgG1)
B3: PD-1xLAG-3 bispecific antibody SEQ ID NO: 5 × SEQ ID NO: 15 (bispecific antibody)
heavy (part 1 of 2) 1: not shown
heavy (part 2 of 2) 1: not shown
heavy (part 1 of 2) 2: QVQLVQSGAEVKKPGASVKVSCKASGYTFTSYGISWVRQAPGQGLEWMGWISAYSGNTNYAQKLQGRVTMTTDTSTSTAYMELRSLRSDDTAVYYCARDGSGWDDFDYWGQGTLVTVSSASTKGPSVFPLAPSSKSTSGGTAALGCLVKDYFPEPVTVSWNSGALTSGVHTFPAVLQSSGLYSLSSVVTVPSSSLGTQTYICNVNHKPSNTKVDKRV
heavy (part 2 of 2) 2: not shown
light: not shown
notes: IgG1; common light chain; also called PB17; not shown: hinge (IgG1)
B4: PD-1xLAG-3 bispecific antibody SEQ ID NO: 1 × SEQ ID NO: 14 (bispecific antibody)
heavy (part 1 of 2) 1: not shown
heavy (part 2 of 2) 1: not shown
heavy (part 1 of 2) 2: EVQLVQSGSELKKPGASVKVSCKASGYTFTTNALNWVRQAPGQGLEWMGWINTHTGNPTYAQGFIGRFVFSLDTSVSTAYLQIRSLKAEDTAVYYCAREPNWGVYFDYWGQGTLVTVSSASTKGPSVFPLAPSSKSTSGGTAALGCLVKDYFPEPVTVSWNSGALTSGVHTFPAVLQSSGLYSLSSVVTVPSSSLGTQTYICNVNHKPSNTKVDKRV
heavy (part 2 of 2) 2: not shown
light: not shown
notes: IgG1; common light chain; also called PB4; not shown: hinge (IgG1)
B5: PD-1xLAG-3 bispecific antibody SEQ ID NO: 6 × SEQ ID NO: 14 (bispecific antibody)
heavy (part 1 of 2) 1: not shown
heavy (part 2 of 2) 1: not shown
heavy (part 1 of 2) 2: B4 heavy (part 1 of 2) 2
heavy (part 2 of 2) 2: not shown
light: not shown
notes: IgG1; common light chain; also called PB10; PD-1xLAG-3 bispecific antibody 2; not shown: hinge (IgG1)

The binders below were run against T2, human PD-1 (expressed on cells) (human, UniProt Q15116 25-288) (assay: cell-based or functional assay).
T2 sequence (Q15116 25-288): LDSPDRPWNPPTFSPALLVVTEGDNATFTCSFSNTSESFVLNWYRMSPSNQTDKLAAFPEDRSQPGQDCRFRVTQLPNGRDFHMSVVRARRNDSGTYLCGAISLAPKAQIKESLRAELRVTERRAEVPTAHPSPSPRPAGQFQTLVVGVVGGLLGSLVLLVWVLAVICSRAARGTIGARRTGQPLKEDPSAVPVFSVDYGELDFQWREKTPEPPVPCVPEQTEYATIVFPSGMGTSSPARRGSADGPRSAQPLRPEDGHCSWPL
B1 was tested, and the “EC50 (read off the curve); PD-1/PD-L1 reporter assay, luciferase fold induction” value (“EC50 … luciferase fold induction” below) was ~0.5 µg/mL.
For B2, the “EC50 … luciferase fold induction” value was ~0.7 µg/mL.

Molecular target: T2, human PD-1 (expressed on cells)
Experiment: cell-based or functional assay
Remark: another data set of the same source
In the case of B3, the “EC50 … luciferase fold induction” value is reported as ~2 µg/mL.

What follows are binders tested against cynomolgus PD-1 (expressed on 293FF cells) (cynomolgus, UniProt B0LAJ3 25-288) (assay: FACS on 293FF cells transiently transfected with cynomolgus PD-1).
Chain of cynomolgus PD-1 (expressed on 293FF cells) (B0LAJ3 entry or part of it limits assumed): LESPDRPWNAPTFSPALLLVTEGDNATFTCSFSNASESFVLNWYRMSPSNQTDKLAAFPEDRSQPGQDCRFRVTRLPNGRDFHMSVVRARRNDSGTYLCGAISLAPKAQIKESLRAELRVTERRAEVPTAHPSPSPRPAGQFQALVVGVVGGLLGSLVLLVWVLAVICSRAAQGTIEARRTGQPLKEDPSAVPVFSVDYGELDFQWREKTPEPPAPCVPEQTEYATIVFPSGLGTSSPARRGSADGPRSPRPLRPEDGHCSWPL
Method: (§1) The binding of bispecific antibodies was analyzed by FACS using cell lines stably transfected with human LAG-3 or rhesus LAG-3, or transiently transfected with human PD-1 or cynomolgus PD-1. […] IgG specific binding was measured by FACS using a 8-step, 5-fold dilution starting at 50 ug/ml. A goat-anti-human PE was used as secondary detection antibody. Cells w/o staining or only secondary detection antibody were included as negative assay controls.
B1: binds.
B2: binds.
B4: binds.
B5: binds.
B3: binds.

These binders were tested against T1, human LAG-3 (expressed on 293FF cells) (assay: FACS on 293FF cells stably transfected with human LAG-3).
Method: as §1
B1: binds.
B2: binds.
B4: binds.
B5: binds.
B3: binds.

Molecular target: T2, human PD-1 (expressed on cells)
Experiment: cell-based or functional assay
Remark: another data set of the same source
With B4 the “EC50 … luciferase fold induction” value was ~1 µg/mL.
For B5, the “EC50 … luciferase fold induction” value was ~1 µg/mL.

Molecular target: T2, human PD-1 (expressed on cells)
Experiment: cell-based or functional assay
Remark: another data set of the same source
B1 was tested, and the “AUC relative to positive control, PD-1/LAG-3 reporter assay” value (from here on “AUC relative to positive control”) was 215% and the “EC50 (nM) PD-1/LAG-3 reporter assay” value was 19.1 nM.
In the case of B2, the “AUC relative to positive control” value is reported as 218% and the “EC50 (nM) PD-1/LAG-3 reporter assay” value is reported as 10.1 nM.
B4 was tested, and the “AUC relative to positive control” value was 271% and the “EC50 (nM) PD-1/LAG-3 reporter assay” value was 9.96 nM.
In the case of B5, the “AUC relative to positive control” value is reported as 246% and the “EC50 (nM) PD-1/LAG-3 reporter assay” value is reported as 18 nM.
In the case of B3, the “AUC relative to positive control” value is reported as 293% and the “EC50 (nM) PD-1/LAG-3 reporter assay” value is reported as 12.9 nM.
